Laboratory results taken from PMC12442453.

Legend:
[1] = target: T1, human EPOR ectodomain (ECD) fused to a human Fc domain (EPOR-Fc), P19235; test: BLI; settings: chain shown with the change; solution-phase Db-Fc, immobilized EPOR-Fc
T1 chain: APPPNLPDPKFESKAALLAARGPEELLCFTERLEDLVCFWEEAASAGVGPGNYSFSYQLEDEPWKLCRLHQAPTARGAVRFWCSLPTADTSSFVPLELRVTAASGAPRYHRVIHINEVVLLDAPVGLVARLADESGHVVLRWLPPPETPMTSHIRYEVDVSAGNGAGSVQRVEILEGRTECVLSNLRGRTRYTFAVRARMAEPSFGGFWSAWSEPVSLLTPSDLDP

[2] = target: VL–VH 1.1 without an Fc domain; test: crystal structure; VL–VH 1.1 alone, space group P21, 2.06 Å, four chains in the asymmetric unit; 20% PEG8000, 100 mM CHES
[3] = target: T2, human EPOR, endogenous on TF-1 cells (human (endogenous in TF-1)) (UniProt P19235)
T2 sequence: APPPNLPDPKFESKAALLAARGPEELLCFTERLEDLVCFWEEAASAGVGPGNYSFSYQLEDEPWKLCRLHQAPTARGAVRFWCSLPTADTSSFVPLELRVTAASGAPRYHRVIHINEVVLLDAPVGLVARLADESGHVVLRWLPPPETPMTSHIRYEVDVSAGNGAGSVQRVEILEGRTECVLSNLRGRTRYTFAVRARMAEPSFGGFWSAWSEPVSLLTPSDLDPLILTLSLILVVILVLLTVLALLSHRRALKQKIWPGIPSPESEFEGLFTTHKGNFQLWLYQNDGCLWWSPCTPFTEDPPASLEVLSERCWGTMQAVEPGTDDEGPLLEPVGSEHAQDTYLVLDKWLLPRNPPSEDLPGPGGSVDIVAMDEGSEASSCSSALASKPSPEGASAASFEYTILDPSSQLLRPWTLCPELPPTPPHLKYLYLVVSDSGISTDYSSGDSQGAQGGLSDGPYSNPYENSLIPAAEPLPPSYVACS

B1: Db-Fc 1 L:Y109D; L:I116F; H:Y35R; H:I39M; H:Y59H; H:S63G; H:G114S (protein)
chain 1: EVQLVESGGGLVQPGGSLRLSCAASGFNLRSYYMHWVRQAPGKGLEWVASISPHYGYTYYADSVKGRFTISADTSKNTAYLQMNSLRAEDTAVYYCARHGYSAMDYWGQGTLVTVSS
chain 2: DIQMTQSPSSLSASVGDRVTITCRASQSVSSAVAWYQQKPGKAPKLLIYSASSLYSGVPSRFSGSRSGTDFTLTISSLQPEDFATYYCQQSSDSLFTFGQGTKVEIK
- Kd [1]: 3.8 nM

B2: VL–VH 1.1 without an Fc domain (protein)
VH: EVQLVESGGGLVQPGGSLRLSCAASGFNLRSYYMHWVRQAPGKGLEWVASISPYYSYTYYADSVKGRFTISADTSKNTAYLQMNSLRAEDTAVYYCARHGYGAMDYWGQGTLVTVSS
VL: DIQMTQSPSSLSASVGDRVTITCRASQSVSSAVAWYQQKPGKAPKLLIYSASSLYSGVPSRFSGSRSGTDFTLTISSLQPEDFATYYCQQSSYSLITFGQGTKVEIK
- stoichiometry N [2]: 4

B3: Db-Fc 1.3 (Fc fusion)
VH: EVQLVESGGGLVQPGGSLRLSCAASGFNLRSYYMHWVRQAPGKGLEWVASISPHYGYTYYADSVKGRFTISADTSKNTAYLQMNSLRAEDTAVYYCARHGYSAMDYWGQGTLVTVSS
VL: DIQMTQSPSSLSASVGDRVTITCRASQSVSSAVAWYQQKPGKAPKLLIYSASSLYSGVPSRFSGSRSGTDFTLTISSLQPEDFATYYCQQSSDSLFTFGQGTKVEIK
- UT-7/Epo cell proliferation, EC50; Hb-Fc3 fraction of variant 1.3 (putative hexamer) [3]: 1.1 nM
- UT-7/Epo cell proliferation, EC50; purified Db-Fc fraction of variant 1.3 (putative dimer) [3]: 16 nM
- UT-7/Epo cell proliferation, EC50; unfractionated Db-Fcmix 1.3 [3]: 1.8 nM
- UT-7/Epo cell proliferation, maximum response; Hb-Fc3 fraction of variant 1.3 (putative hexamer) [3]: 3.4e+06 RLU
- UT-7/Epo cell proliferation, maximum response; purified Db-Fc fraction of variant 1.3 (putative dimer) [3]: 600000 RLU
- UT-7/Epo cell proliferation, maximum response; unfractionated Db-Fcmix 1.3 [3]: 2.5e+06 RLU
